Experimental data taken from publication PMC7659722 (The Journal of Cell Biology, 2020).

Molecular target: the molecule itself
Assay: SDS-PAGE

B1: recombinant human FIT2 WT, 3FLAG-tagged (enzyme, UniProt Q8N6M3 1-262, looked up)
chain: MEHLERCEWLLRGTLVRAAVRRYLPWALVASMLAGSLLKELSPLPESYLSNKRNVLNVYFVKVAWAWTFCLLLPFIALTNYHLTGKAGLVLRRLSTLLVGTAIWYICTSIFSNIEHYTGSCYQSPALEGVRKEHQSKQQCHQEGGFWHGFDISGHSFLLTFCALMIVEEMSVLHEVKTDRSHCLHTAITTLVVALGILTFIWVLMFLCTAVYFHNLSQKVFGTLFGLLSWYGTYGFWYPKAFSPGLPPQSCSLNLKQDSYKK
B1: binds.
